For three molecules, Kd, koff and kon results are on record in publication PMC7020083.

To fix the notation:
B1: human CXCL13 (ligand)
chain: VLEVYYTSLRCRCVQESSVFIPRRFIDRIQILPRGNGCPRKEIIVWKKNKSIVCVDPQAEWIQRMMEVLRKRSSSTLPVPVFKRKIP

Sequence of UniProt P20333 (P20333 23-257 limits assumed): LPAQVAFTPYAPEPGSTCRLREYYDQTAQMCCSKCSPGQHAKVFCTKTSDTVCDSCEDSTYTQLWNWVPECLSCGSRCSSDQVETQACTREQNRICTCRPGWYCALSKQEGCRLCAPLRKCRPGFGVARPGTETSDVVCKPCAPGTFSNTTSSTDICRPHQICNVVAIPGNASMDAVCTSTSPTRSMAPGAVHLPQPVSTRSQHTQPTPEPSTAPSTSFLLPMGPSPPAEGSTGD

The experiment concerns the target hTNFR2-SCP3-Fc (human | ectromelia virus) (UniProt P20333). Briefly: SPR; […], single-cycle; 1:1 Langmuir fit. A general note: Surface plasmon resonance follows binding to a sensor surface in real time, without labels.
The molecule “human CCL25 (from UniProt O15444 24-150) (ligand)” had a Kd of 6.75 nM, a koff of 0.00374 s⁻¹ and a kon of 554000 M⁻¹ s⁻¹.

In turn, “human CXCL12 (from UniProt P48061 22-93) (ligand)” returned a Kd of 49.8 nM, a koff of 0.00825 s⁻¹ and a kon of 166000 M⁻¹ s⁻¹.

In the case of B1, the Kd was determined as 21.4 nM, the koff was determined as 0.00155 s⁻¹ and the kon was 72000 M⁻¹ s⁻¹.

The Kd is the equilibrium constant for the complex coming apart. High values mean weaker binding, low ones tighter binding. A word on the koff: it is the rate constant with which the complex falls apart. A low value points to a long-lived complex. Usually kon stands for the second-order rate constant of association. Read a high kon as faster complex formation.
